In the supplement of paper PMC10724198:
± gives the standard deviation of the averaged measurements.

Test system: Saccharomyces cerevisiae
Assay: protein stability index of tFT-peptide fusion (C-terminal peptide) (PSI (0-1 scale)); higher = more stable (slower turnover)
Details: temperature: 30 C
Description: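 MPS profiling in S. cerevisiae of the yeast C-terminome library: the last 12 aa of each annotated ORF are fused to the C-terminus of a sfGFP-mCherry timer, after a GGGS linker. Cells are FACS-sorted into 8 mCherry/sfGFP bins and deep-sequenced. PSI runs from 0 (unstable) to 1 (stable); wild type and das1Δ backgrounds, two technical replicates each.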

[1] = genetic background: das1 deletion

Row | Sequence | protein stability index [1] | protein stability index (genetic background: wild type)
1 | KQREKYAAVASK [SOP4 C-terminal 12 aa] | 0.692 ± 0.022 | 0.698 ± 0.043
2 | IKLIDFNETSLT [MCM22 C-terminal 12 aa] | 0.68 ± 0.008 | 0.675 ± 0.0072
3 | DEFIKKNSDKIR [EXO84 C-terminal 12 aa] | 0.676 ± 0.047 | 0.64 ± 0.037
4 | NLNQHVKTHASL [COM2 C-terminal 12 aa] | 0.6752 ± 0.0042 | 0.681 ± 0.029
5 | VILSETVVILYY [YKR032W C-terminal 12 aa] | 0.346 ± 0.014 | 0.345 ± 0.0067
6 | YDRDAKNDRSTT [YHL017W C-terminal 12 aa] | 0.705 ± 0.023 | 0.665 ± 0.061
7 | VARYKMVSKRIW [EMP65 C-terminal 12 aa] | 0.717 ± 0.011 | 0.654 ± 0.018
8 | AKELISAIFFGE [TAF6 C-terminal 12 aa] | 0.698 ± 0.057 | 0.6614 ± 0.0044
9 | ITLRLWEQRQAK [MAD1 C-terminal 12 aa] | 0.754 ± 0.019 | 0.726 ± 0.0076
10 | VDIPVDVKKLQI [BUL2 C-terminal 12 aa] | 0.723 ± 0.035 | 0.696 ± 0.018
11 | EATIENLKRLKL [VAS1 C-terminal 12 aa] | 0.693 ± 0.016 | 0.642 ± 0.0087
12 | IYALSIKHPKEI [CPT1 C-terminal 12 aa] | 0.713 ± 0.0085 | 0.7248 ± 0.0029
13 | EKIKRDLALKKG [PET100 C-terminal 12 aa] | 0.697 ± 0.045 | 0.661 ± 0.059
14 | FTNQKLAKLEVR [YMR141C C-terminal 12 aa] | 0.57877 ± 0.00025 | 0.591 ± 0.0041
15 | KPSSNNSINIKV [AHK1 C-terminal 12 aa] | 0.707 ± 0.033 | 0.743 ± 0.031
16 | CPPTIEIGGGGH [MIR1 C-terminal 12 aa] | 0.712 ± 0.0075 | 0.706 ± 0.0053
17 | WSNNDDMEQNPW [YPR089W C-terminal 12 aa] | 0.7236 ± 0.0055 | 0.713 ± 0.029
18 | NYEDLATTQAAS [BRN1 C-terminal 12 aa] | 0.722 ± 0.011 | 0.68 ± 0.013
19 | VNELVELMTQSA [SEC18 C-terminal 12 aa] | 0.675 ± 0.015 | 0.695 ± 0.014
20 | PICKLLEEEERG [ALG11 C-terminal 12 aa] | 0.7 ± 0.011 | 0.699 ± 0.041
21 | QVNKPGPLTVPF [MEH1 C-terminal 12 aa] | 0.702 ± 0.015 | 0.716 ± 0.018

Row | Sequence | protein stability index [1] | protein stability index (genetic background: wild type)
22 | IIGALNLYDGLI [FRQ1 C-terminal 12 aa] | 0.737 ± 0.017 | 0.763 ± 0.12
23 | HNPSLWSCIFGK [SWS2 C-terminal 12 aa] | 0.716 ± 0.02 | 0.714 ± 0.029
24 | ALENENKRKAKL [CAT2 C-terminal 12 aa] | 0.79 ± 0.015 | 0.798 ± 0.11
25 | YWRKQYPEVDLP [UIP3 C-terminal 12 aa] | 0.728 ± 0.018 | 0.744 ± 0.017
26 | ELQEKVEQLSKW [POL3 C-terminal 12 aa] | 0.7208 ± 0.00089 | 0.688 ± 0.026
27 | GEGESIDDKLTD [STB1 C-terminal 12 aa] | 0.6976 ± 0.00096 | 0.733 ± 0.054
28 | HGGNVSSSTYQA [GND1 C-terminal 12 aa] | 0.685 ± 0.013 | 0.696 ± 0.029
29 | DEWLNLHINIVE [SHU2 C-terminal 12 aa] | 0.741 ± 0.0062 | 0.717 ± 0.014
30 | LTHQSLLATARK [KIP3 C-terminal 12 aa] | 0.6931 ± 0.0014 | 0.6879 ± 0.00097
31 | TKHTPKYLLNTI [YNL179C C-terminal 12 aa] | 0.6926 ± 0.0048 | 0.6621 ± 0.00097
32 | NFWNTGSAIFMQ [YHR069C-A C-terminal 12 aa] | 0.7347 ± 0.0017 | 0.719 ± 0.029
33 | DWQNGQVEDSIP [PEX14 C-terminal 12 aa] | 0.711 ± 0.023 | 0.672 ± 0.0079
34 | LGFYYIYTLHRA [ERG9 C-terminal 12 aa] | 0.505 ± 0.045 | 0.498 ± 0.03
35 | KILGRYVVDTSK [ADH3 C-terminal 12 aa] | 0.7177 ± 0.0055 | 0.6547 ± 0.0035
36 | KERIVLSNVRPM [TFC7 C-terminal 12 aa] | 0.6909 ± 0.004 | 0.686 ± 0.027
37 | LYEHGIKKFDDL [JIP5 C-terminal 12 aa] | 0.674 ± 0.029 | 0.721 ± 0.039
38 | DNFMNNSDIFQN [TGL5 C-terminal 12 aa] | 0.741 ± 0.027 | 0.686 ± 0.0082
39 | PFPQKHRDNHLV [YOR053W C-terminal 12 aa] | 0.701 ± 0.025 | 0.711 ± 0.012
40 | EIKPYLRFTKSK [PRX1 C-terminal 12 aa] | 0.692 ± 0.011 | 0.718 ± 0.085
41 | DVLDDLYRKLQR [CSE2 C-terminal 12 aa] | 0.7138 ± 8.1e-05 | 0.699 ± 0.02
